From US20250179176A1, “ANTI-TIGIT ANTIBODIES AND USES OF THE SAME” (ARCUS BIOSCIENCES, INC., priority 2022, published 2025)

What was measured:
human FcγR3A (human) = human FcγR3A (human) (UniProt P08637); experiment: ELISA, FcγR3A coated on plate, anti-human IgG HRP, chemiluminescence
Human TIGIT (human) = Human TIGIT (human) (UniProt Q495A1); experiment: flow cytometry receptor occupancy on patients' whole blood, competitive anti-TIGIT antibody MBSA43 as detector, Q2W dosing
Sequence of Human TIGIT (human) (Q495A1 other isoform, or with tags, fused parts or gaps): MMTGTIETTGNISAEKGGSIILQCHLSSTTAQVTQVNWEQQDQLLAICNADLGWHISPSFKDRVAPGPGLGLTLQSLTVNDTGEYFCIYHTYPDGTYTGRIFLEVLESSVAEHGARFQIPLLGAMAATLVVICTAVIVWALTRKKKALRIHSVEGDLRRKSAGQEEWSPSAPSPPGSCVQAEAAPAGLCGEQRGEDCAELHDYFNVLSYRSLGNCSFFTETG

Sequence of human FcγR3A (human) (P08637 17-208 limits assumed): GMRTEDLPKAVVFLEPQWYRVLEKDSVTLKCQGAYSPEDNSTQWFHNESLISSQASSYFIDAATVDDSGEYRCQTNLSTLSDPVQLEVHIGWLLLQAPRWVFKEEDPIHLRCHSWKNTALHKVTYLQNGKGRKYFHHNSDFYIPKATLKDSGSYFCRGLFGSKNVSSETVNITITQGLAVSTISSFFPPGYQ

domvanalimab (antibody) was tested, and the percent of the binding of human IgG1 to the same receptor (human FcγR3A (human)) was 20% and the receptor occupancy (RO) (Human TIGIT (human)) was greater than 98%.
